B3: Streptococcus pneumoniae pneumolysin, recombinant (natural protein)
chain: ANKAVNDFILAMNYDKKKLLTHQGESIENRFIKEGNQLPDEFVVIERKKRSLSTNTSDISVTATNDSRLYPGALLVVDETLLENNPTLLAVDRAPMTYSIDLPGLASSDSFLQVEDPSNSSVRGAVNDLLAKWHQDYGQVNNVPARMQYEKITAHSMEQLKVKFGSDFEKTGNSLDIDFNSVHSGEKQIQIVNFKQIYYTVSVDAVKNPGDVFQDTVTVEDLKQRGISAERPLVYISSVAYGRQVYLKLETTSKSDEVEAAFEALIKGVKVAPQTEWKQILDNTEVKAVILGGDPSSGARVVTGKVDMVEDLIQEGSRFTADHPGLPISYTTSFLRDNVVATFQNSTDYVETKVTAYRNGDLLLDHSGAYVAQYYITWDELSYDHQGKEVLTPKAWDRNGQDLTAHFTTSIPLKGNVRNLSVKIRECTGLAWEWWRTVYEKTDLPLVRKRTISIWGTTLYPQVEDKVEND
notes: pneumolysin of S. pneumoniae strain R6, residues 2-471 of WP_001284359.1; pQE30 vector; In the folding assays it was denatured in 8 M urea and then diluted; also called Ply; Ply toxin

Data set [1] deals with the molecule itself. Description: crystal structure; X-ray structures of SpnPrsA (2.55 A) and SmuPrsA (3.15 A); dimers in the crystal.
Data set [2] addresses B3. Description: MST; chaperone labelled with red NHS dye kept at 20 nM, unlabelled protein in serial dilution; pH 6.5, 0.05% Tween 20, 25 C; 1:1 model in PALMIST, 95% CI. As to conditions: both partners purified.
Data set [3] has as its target T1, bovine serum albumin (bovine, UniProt P02769 25-607).
T1 construct: also called BSA
The data set is described as above. The settings on record: both partners purified.

Data set [4] concerns the target B3. In words: ITC; chaperone in the syringe, Ply in the sample cell; 20 mM MES, 100 mM NaCl, 1 mM beta-mercaptoethanol, 10% glycerol, pH 6.5, 25 C; independent binding model. As to conditions: both partners purified. A general note: Isothermal titration calorimetry measures the heat released or taken up as one component is titrated into another.
For data set [5], the target named is T2, Streptococcus pneumoniae SlrA (Streptococcus pneumoniae strain R6, UniProt Q8DQG5 19-267).
T2 construct: also called SpnSlrA; hexa-his-tagged SpnSlrA; source: E. coli BL21 (DE3), expressed and purified similarly to Ply (Ni-NTA, dialysis); not shown: His6, N-terminal, kept
In words: MST; chaperone labelled with red NHS dye kept at 20 nM, unlabelled protein in serial dilution; pH 6.5, 0.05% Tween 20, 25 C; 1:1 model in PALMIST, 95% CI. The settings on record: both partners purified.

In data set [6] the target is T2, Streptococcus pneumoniae SlrA. In words: ITC; chaperone in the syringe, Ply in the sample cell; 20 mM MES, 100 mM NaCl, 1 mM beta-mercaptoethanol, 10% glycerol, pH 6.5, 25 C; independent binding model. As to conditions: both partners purified.

T1 sequence (P02769 25-607): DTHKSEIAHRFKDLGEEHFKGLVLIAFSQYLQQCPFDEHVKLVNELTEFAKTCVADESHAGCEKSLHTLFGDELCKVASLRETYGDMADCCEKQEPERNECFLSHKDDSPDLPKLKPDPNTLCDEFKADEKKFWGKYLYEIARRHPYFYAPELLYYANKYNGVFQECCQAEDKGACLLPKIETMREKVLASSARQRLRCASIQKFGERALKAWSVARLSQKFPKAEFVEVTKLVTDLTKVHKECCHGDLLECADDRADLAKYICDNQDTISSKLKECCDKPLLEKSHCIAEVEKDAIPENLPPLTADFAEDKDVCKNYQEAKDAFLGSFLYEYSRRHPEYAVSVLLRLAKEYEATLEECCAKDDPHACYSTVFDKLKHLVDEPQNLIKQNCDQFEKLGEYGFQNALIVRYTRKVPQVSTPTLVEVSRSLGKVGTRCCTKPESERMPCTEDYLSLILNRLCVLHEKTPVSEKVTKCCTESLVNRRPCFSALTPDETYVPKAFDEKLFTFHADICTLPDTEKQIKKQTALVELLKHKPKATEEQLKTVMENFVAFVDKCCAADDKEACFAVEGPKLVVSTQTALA

B1: Streptococcus pneumoniae PrsA (enzyme)
chain: GADLISMKGDVITEHQFYEQVKNNPSAQQVLLNMTIQKVFEKQYGSELDDKEVDDTIAEEKKQYGENYQRVLSQAGMTLETRKAQIRTSKLVELAVKKVAEAELTDEAYKKAFDEYTPDVTAQIIRLNNEDKAKEVLEKAKAEGADFAQLAKDNSTDEKTKENGGEITFDSASTEVPEQVKKAAFALDVDGVSDVITATGTQAYSSQYYIVKLTKKTEKSSNIDDYKEKLKTVILTQKQNDSTFVQSIIGKELQAANIKVKDQAFQNIFTQYIGGGDSSSSSSTSNE
notes: also called SpnPrsA; hexa-his-tagged SpnPrsA; not shown: His6, N-terminal, kept
For the molecule B1, the binding result in data set [1] is given as “binds”. For the same molecule, the Kd (in general, a measure of binding affinity in units of concentration) in data set [2] worked out at 70 nM. For the same molecule, the Kd in data set [3] stood at 62000 ± 58000 nM. For the same molecule, in data set [4], the Ka was 8.38e+06 M⁻¹; the Kd turned out to be 119 ± 25.9 nM; the dH is -100 ± 3.74 kcal/mol; the stoichiometry N (commonly the number of molecules, sites or subunits per partner or assembly) was 1.85.

B2: Streptococcus mutans PrsA (enzyme)
chain: ACSKTNQNSKIATMKGDTITVADFYNEVKNSTASKQAVLSLLVSKVFEKQYGDKVSDKEVTKAYNEAAKYYGDSFSSALASRGYTKEDYKKQIRSEKLIEYAVKEEAKKEITDASYKSAYKDYKPEVTAQVIQLDSEDKAKSVLEEAKADGADFAKIAKDNTKGDKTEYSFDSGSTNLPSQVLSAALNLDKDGVSDVIKASDSTTYKPVYYIVKITKKTDKNADWKAYKKRLKEIIVSQKLNDSNFRNAVIGKAFKKANVKIKDKAFSEILSQY
notes: also called SmuPrsA
Turning to B2, the binding result in data set [1] is “binds”.

Regarding B3, the Kd turned out to be 60 nM in data set [5] and 81.2 ± 18 nM in data set [6]. This molecule also gave a Ka in data set [6] of 1.23e+07 M⁻¹.

The values are drawn from publication PMC11853100, “Structural analysis of extracellular ATP-independent chaperones of streptococcal species and protein substrate interactions” (mSphere, 2025).
